Assay results from patent US20090233850A1.

What was measured:
[1] = target: recombinant monomeric HIV-1 YU2 gp120, produced in Drosophila S2 cells (HIV-1 YU2) (UniProt P35961); experiment: SPR, Biacore 3000, about 250 RU YU2 gp120 amine-coupled to CM5 chip, CVN in flow, 2B6R reference cell
[2] = target: recombinant monomeric HIV-1 YU2 gp120, produced in Drosophila S2 cells (HIV-1 YU2) (UniProt P35961); experiment: SPR, Biacore 3000, from the response at 300 nM against the 33 RU expected for 1:1
[3] = target: recombinant monomeric HIV-1 YU2 gp120, produced in Drosophila S2 cells (HIV-1 YU2) (UniProt P35961); experiment: competition ELISA on plate-adsorbed YU2 gp120; competitor mAb 2G12 at 50 ug/ml; percent of control without CVN
[4] = target: recombinant monomeric HIV-1 YU2 gp120, produced in Drosophila S2 cells (HIV-1 YU2) (UniProt P35961); experiment: ELISA, 100 ng YU2 gp120 adsorbed on the plate, serial dilutions of CVN, detection with polyclonal anti-CVN, BSA background subtracted
[5] = target: gp120 on HIV-1 BaL (R5) virus (HIV-1 BaL); experiment: cell-based or functional assay

cyanovirin-N (CVN), recombinant, periplasmic expression in E. coli, hexa-histidine tagged (from UniProt P81180 1-101)
SPR response at 300 nM [1]: 95 RU | binding stoichiometry (CVN:gp120) [2]: 3 | IC50 (read off the curve) [3]: 30 nM | EC50 (read off the curve) [4]: 10 nM

unlinked CVN and 12p1 (non-covalent mixture) (from UniProt P81180 1-101)
boost of efficacy (% inhibition of HIV-1 BaL) of the mixture against CVN alone at the two lowest concentrations, 12p1 at 16-31 uM [5]: 2 fold | synergy index of the combination of CVN and 12p1, inhibition of HIV-1 BaL replication in PM-1 cells (gp120 ELISA after 7 days) [5]: 0.3 to 0.5
